Patent publication US7125969, “ETS-related gene overexpressed in human breast and epithelial cancers” (The Regents of the University of California)
Changes are numbered by the printed parent chain.

T1: ESX (271-371, ETS DNA-binding domain) (Homo sapiens, UniProt P78545 SEQ:271-371)
T1 sequence: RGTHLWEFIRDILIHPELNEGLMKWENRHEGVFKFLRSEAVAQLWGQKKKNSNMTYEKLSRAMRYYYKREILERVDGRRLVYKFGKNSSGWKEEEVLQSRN

T2: ESX (full-length, His-tagged) (Homo sapiens, UniProt P78545 SEQ:1-371)
T2 sequence: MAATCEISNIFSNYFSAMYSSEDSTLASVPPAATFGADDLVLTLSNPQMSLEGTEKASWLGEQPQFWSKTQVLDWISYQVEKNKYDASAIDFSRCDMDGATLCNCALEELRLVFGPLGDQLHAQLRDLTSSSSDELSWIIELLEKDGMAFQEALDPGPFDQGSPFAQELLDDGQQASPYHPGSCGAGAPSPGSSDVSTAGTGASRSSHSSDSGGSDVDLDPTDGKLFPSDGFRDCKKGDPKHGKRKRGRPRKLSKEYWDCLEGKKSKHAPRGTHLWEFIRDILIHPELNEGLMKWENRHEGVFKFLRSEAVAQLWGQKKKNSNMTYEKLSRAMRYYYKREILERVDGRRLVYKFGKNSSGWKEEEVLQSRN

B1: TA5 WT (HER2/neu promoter -50 to -20) (dsDNA)
DNA 1: GGAGGAGGGCTGCTTGAGGAAGTATAAGAAT
DNA 2: ATTCTTATACTTCCTCAAGCAGCCCTCCTCC
B2: TA5 m1 (dsDNA)
DNA 1: B1 DNA 1 with G9T, C10A
DNA 2: B1 DNA 2 with G22T, C23A
B3: TA5 m4 (dsDNA)
DNA 1: B1 DNA 1 with G18C, G19C
DNA 2: B1 DNA 2 with C13G, C14G
B4: TA5 m3 (dsDNA)
DNA 1: B1 DNA 1 with G19A, A20G
DNA 2: B1 DNA 2 with T12C, C13T
B5: TA5 m2 (dsDNA)
DNA 1: B1 DNA 1 with A17C
DNA 2: B1 DNA 2 with T15G
B6: TA5 m5 (dsDNA)
DNA 1: B1 DNA 1 with T23C
DNA 2: B1 DNA 2 with A9G

What was measured:
[1] = molecular target: T1, ESX (271-371, ETS DNA-binding domain); experiment: EMSA; affinity comparable to full-length; conditions: label: end-labeled
[2] = molecular target: T2, ESX (full-length, His-tagged); experiment: EMSA; high-affinity sequence-specific; ~1 ng protein, 0.3 pmol probe; conditions: tags: His-tag (pRSETA), E. coli BL21(DE3)pLysS; label: end-labeled
Procedure: (§1) Electrophoretic mobility shift assay (EMSA) was performed as previously described (Scott et al. (1994) *J. Biol. Chem.* 269: 19848–19858), using approximately one ng of ESX protein per condition and 0.3 pmol of end-labeled TA5 probe (+cold competitor). TA5 is a duplexed 31-mer oligonucleotide from the HER2/neu promoter, extending from −50 bp to −20 bp relative to the major transcriptional start site, that includes an Ets response element.

[3] = molecular target: T2, ESX (full-length, His-tagged); experiment: competition; flanking mutation; relatively effective cold competitor at 50-fold excess; conditions: tags: His-tag (pRSETA), E. coli BL21(DE3)pLysS
Procedure: (§2) Five different competing unlabeled (cold) oligonucleotides containing specific mutations in the wild-type (WT) TA5 (SEQ ID NO:32) sequence, m1–m5 (SEQ ID NOs:33–37) were added at 50-fold molar excess; gel lanes containing the excess cold competitors are labeled. […] The antisense strand sequence as shown (~40 bp to ~26 bp upstream of major transcriptional start site in HER2/neu promoter) is marked with asterisk at the hypersensitivity site within Ets response element (GGAA on sense strand). FIGS. 8c and 8d show the induction of CAT activity from two different ETS-responsive reporter constructs (p3TA5-BLCAT5, pHER2-CAT) in COS cells cotransfected with an ESX expression plasmid (pcDNAI-ESX). Mutant reporter plasmids (p3TA5P-BLCAT5, pHER2m-CAT) are identical to their normal counterparts except for alterations in the Ets response element within the TA5 sequence (GGAA to GAGA and GGAA to TTAA, respectively).
as §1

[4] = molecular target: T2, ESX (full-length, His-tagged); experiment: competition; GGAA core mutation; fails to compete at 50-fold excess; conditions: tags: His-tag (pRSETA), E. coli BL21(DE3)pLysS
Procedure: as §2, §1

Binder	binding result [3]	binding result [4]	other results
B1			binding result [1]: binds; binding result [2]: binds
B2	binds		
B3		no binding	
B4		no binding	
B5	binds		
B6	binds		
